Laboratory results from doi:10.1101/554881, “LRRK2-mediated phosphorylation of HDAC6 regulates HDAC6-cytoplasmic dynein interaction and aggresome formation” (bioRxiv, 2019).

Molecular target: T1, GST-tagged human LRRK2 wild type (amino acids 970-2527) (human, UniProt Q5S007 970-2527)
T1 construct: LRRK2, human, amino acids 970-2527; also called GST-LRRK2; GST-LRRK2 (aa 970-2527); source: bought: Invitrogen
Assay: pull-down; GST-LRRK2 (aa 970-2527; 1 µg) or GST (1 µg) incubated with His-HDAC6 (1 µg) in 250 µl RB100 buffer (25 mM HEPES pH 7.5, 100 mM KOAc, 10 mM MgCl2, 1 mM DTT, 0.05% Triton X-100, 10% glycerol) for 1 h at 4°C; captured on glutathione sepharose; immunoblot
Details: both partners purified

T1 sequence (Q5S007 970-2527): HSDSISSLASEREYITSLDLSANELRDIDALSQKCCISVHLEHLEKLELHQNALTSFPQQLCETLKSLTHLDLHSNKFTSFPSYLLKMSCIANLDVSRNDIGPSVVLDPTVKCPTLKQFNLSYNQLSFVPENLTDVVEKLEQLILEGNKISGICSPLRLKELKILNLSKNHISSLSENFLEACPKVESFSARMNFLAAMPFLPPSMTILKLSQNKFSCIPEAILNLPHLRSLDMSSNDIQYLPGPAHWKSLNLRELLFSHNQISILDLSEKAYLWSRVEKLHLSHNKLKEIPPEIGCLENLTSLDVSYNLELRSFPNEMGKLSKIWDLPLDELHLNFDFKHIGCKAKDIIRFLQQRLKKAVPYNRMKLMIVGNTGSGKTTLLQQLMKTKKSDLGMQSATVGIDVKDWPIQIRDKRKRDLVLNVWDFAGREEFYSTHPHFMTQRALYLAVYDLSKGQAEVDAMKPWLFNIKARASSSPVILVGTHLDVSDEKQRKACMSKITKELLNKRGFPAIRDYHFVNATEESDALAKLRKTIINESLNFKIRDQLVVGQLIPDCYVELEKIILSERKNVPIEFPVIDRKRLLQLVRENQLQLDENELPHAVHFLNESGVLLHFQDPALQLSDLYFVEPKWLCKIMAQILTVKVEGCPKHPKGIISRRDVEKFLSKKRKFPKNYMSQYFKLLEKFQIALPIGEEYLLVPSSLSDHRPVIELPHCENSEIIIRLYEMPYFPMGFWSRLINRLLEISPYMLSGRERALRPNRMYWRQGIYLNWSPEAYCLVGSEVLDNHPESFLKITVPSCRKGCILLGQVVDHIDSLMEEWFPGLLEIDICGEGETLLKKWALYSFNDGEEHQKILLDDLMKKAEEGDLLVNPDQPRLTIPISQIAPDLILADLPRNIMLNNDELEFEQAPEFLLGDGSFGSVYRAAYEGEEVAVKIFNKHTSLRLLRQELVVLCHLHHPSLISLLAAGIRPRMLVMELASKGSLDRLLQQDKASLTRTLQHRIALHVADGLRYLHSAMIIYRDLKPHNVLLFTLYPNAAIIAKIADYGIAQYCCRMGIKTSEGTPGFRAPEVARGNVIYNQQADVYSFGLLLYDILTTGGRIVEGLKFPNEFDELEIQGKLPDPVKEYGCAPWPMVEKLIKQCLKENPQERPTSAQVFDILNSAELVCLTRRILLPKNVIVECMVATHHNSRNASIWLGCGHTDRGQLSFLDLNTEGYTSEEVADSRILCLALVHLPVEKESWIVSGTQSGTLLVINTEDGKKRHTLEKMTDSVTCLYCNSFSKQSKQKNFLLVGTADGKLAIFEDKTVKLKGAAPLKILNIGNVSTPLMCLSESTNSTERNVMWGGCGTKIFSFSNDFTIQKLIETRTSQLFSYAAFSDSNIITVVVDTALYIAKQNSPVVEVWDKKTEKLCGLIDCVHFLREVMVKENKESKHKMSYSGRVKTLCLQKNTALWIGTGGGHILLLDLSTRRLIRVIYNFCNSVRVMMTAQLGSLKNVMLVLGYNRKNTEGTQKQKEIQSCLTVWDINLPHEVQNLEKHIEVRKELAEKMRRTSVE

- binding result: binds
B1: recombinant His-tagged human HDAC6 protein (enzyme, UniProt Q9UBN7 1-1215, looked up)
chain: MTSTGQDSTTTRQRRSRQNPQSPPQDSSVTSKRNIKKGAVPRSIPNLAEVKKKGKMKKLGQAMEEDLIVGLQGMDLNLEAEALAGTGLVLDEQLNEFHCLWDDSFPEGPERLHAIKEQLIQEGLLDRCVSFQARFAEKEELMLVHSLEYIDLMETTQYMNEGELRVLADTYDSVYLHPNSYSCACLASGSVLRLVDAVLGAEIRNGMAIIRPPGHHAQHSLMDGYCMFNHVAVAARYAQQKHRIRRVLIVDWDVHHGQGTQFTFDQDPSVLYFSIHRYEQGRFWPHLKASNWSTTGFGQGQGYTINVPWNQVGMRDADYIAAFLHVLLPVALEFQPQLVLVAAGFDALQGDPKGEMAATPAGFAQLTHLLMGLAGGKLILSLEGGYNLRALAEGVSASLHTLLGDPCPMLESPGAPCRSAQASVSCALEALEPFWEVLVRSTETVERDNMEEDNVEESEEEGPWEPPVLPILTWPVLQSRTGLVYDQNMMNHCNLWDSHHPEVPQRILRIMCRLEELGLAGRCLTLTPRPATEAELLTCHSAEYVGHLRATEKMKTRELHRESSNFDSIYICPSTFACAQLATGAACRLVEAVLSGEVLNGAAVVRPPGHHAEQDAACGFCFFNSVAVAARHAQTISGHALRILIVDWDVHHGNGTQHMFEDDPSVLYVSLHRYDHGTFFPMGDEGASSQIGRAAGTGFTVNVAWNGPRMGDADYLAAWHRLVLPIAYEFNPELVLVSAGFDAARGDPLGGCQVSPEGYAHLTHLLMGLASGRIILILEGGYNLTSISESMAACTRSLLGDPPPLLTLPRPPLSGALASITETIQVHRRYWRSLRVMKVEDREGPSSSKLVTKKAPQPAKPRLAERMTTREKKVLEAGMGKVTSASFGEESTPGQTNSETAVVALTQDQPSEAATGGATLAQTISEAAIGGAMLGQTTSEEAVGGATPDQTTSEETVGGAILDQTTSEDAVGGATLGQTTSEEAVGGATLAQTTSEAAMEGATLDQTTSEEAPGGTELIQTPLASSTDHQTPPTSPVQGTTPQISPSTLIGSLRTLELGSESQGASESQAPGEENLLGEAAGGQDMADSMLMQGSRGLTDQAIFYAVTPLPWCPHLVAVCPIPAAGLDVTQPCGDCGTIQENWVCLSCYQVYCGRYINGHMLQHHGNSGHPLVLSYIDLSAWCYYCQAYVHHQALLDVKNIAHQNKFGEDMPHPH
notes: Histone deacetylase 6 (HDAC6), human, full length; also called His-HDAC6; full-length human His-HDAC6; source: bought: EMD Millipore
